Test results published in US20020031761A1, “Binding moieties for human parvovirus B19” (priority 1998, published 2002).
Positions of bridges follow the written chain, without caps; N, C: chain ends. No end group written: not given here.

What was measured:
[1] = target: parvovirus B19 capsid proteins VP1-VP2 (Human parvovirus B19, UniProt P07299); test: Batch depletion of B19 capsid proteins from solution by immobilized peptide affinity media, supernatant ELISA; assay type: binding; details: peptide immobilized on formyl 750-M resin; 1 hour at room temperature; compared with blank media; ELISA at 5-minute time point
Procedure: The two peptide ligands were immobilized on an aldehyde-functional methacrylate resin support (TosoHaas formyl 750-M; Montgomeryville, Pa.). The peptides were first weighed and dissolved into immobilization buffer (100 mM NaOAc, 150 mM NaCi, 0.1% Tween 20, pH 5.0). A sample of the dissolved peptides was taken for concentration analysis. The chromatography media was measured and washed twice with immobilization buffer. The media and peptide were mixed together and tumbled overnight at room temperature. After the reaction, the supernatant was analyzed for residual peptide and the resultant B19 affinity media was washed with deionized water, 1M NaCl, Tris buffer with 1M NaCl, and twice with PBS. The immobilization data are set forth below:
These parvovirus B19 affinity media were evaluated for the ability of the immobilization ligand to recognize and bind to parvovirus B19 capsid proteins VP1-VP2. Each of the prepared media was evaluated for its ability to deplete a solution of parvovirus B19 capsid proteins as compared to a blank control (media only). […] The capsid protein stock solution was prepared by diluting 30 μl of the purified capsid protein solution (Absorbance at 280 nm=2) with 320 μl of stabilizing buffer. […]
Each sample was analyzed with a standard ELISA for the presence or absence of B19 capsid proteins at ten-fold serial dilution into stabilizing buffer. […]

VP1-VP2 = VP1-VP2 (Human parvovirus B19, UniProt P07299); test: Relative binding ELISA, constant phage against decreasing amounts of VP1-VP2; details: among the 18 selected phage isolates
Procedure: (§1) Based on the ELISA data and the sequence similarities within each library, the 18 isolates (Tables 1-3) were selected and evaluated further with respect to their binding characteristics to VP1-VP2. Relative binding of each isolate was studied by ELISA. Each selected phage isolate, held at a constant amount, was contacted with decreasing amounts per well of VP1-VP2, the amounts coating each dextrin well varying from 2 μl down to 0.001 μl. Bound phage were detected as described before using polyclonal anti-phage antibody. […] Using VP1-VP2 at 1:10 dilution as an arbitrary point, a value for the signal was interpolated, and the relative binding strengths are reflected in Tables 1-3, above.

[2] = target: T1, purified, recombinant parvovirus B19 capsid proteins VP1 and VP2 (VP1-VP2) (human parvovirus B19, UniProt P07299 1-781; P07299 1-554); test: phage ELISA, constant phage against decreasing VP1-VP2 coat; normalized signal interpolated at 1:10 dilution of VP1-VP2
T1 construct: Surrogate target: partially purified/purified recombinant VP1 + VP2 preparation; Made by methods of US 5,498,413 or WO 91/12269
Procedure: (§2) From convergent screens of phage display libraries, eluted phage were propagated and 376 phage isolates were selected randomly and individually tested for binding to VP1-VP2 by standard ELISA techniques, using a polyclonal anti-phage antibody to detect bound phage. Briefly, VP1-VP2 (2 μl per well) was coated on dextrin plates, blocked with BSA, and individual phage isolates were added to the wells (50 μl, 10⁹ pfu per well). After washing, bound phage were incubated with the detection anti-phage antibodies (100 μl per well HRP-conjugated anti-M13 antibody in PBS-Tween (Pharmacia Inc.)). Wild type phage, displaying no non-phage peptide, were employed as controls. The bound antibody was detected by adding 100 μl per well of two-component TMB (tetramethylbenzidine; Kirkegaard & Perry).
as §1

[3] = target: T1, purified, recombinant parvovirus B19 …; test: phage ELISA; VP1-VP2 coated on dextrin plates, HRP anti-M13 detection
Procedure: as §2

Molecule	depletion / clearing of B19 capsid proteins from solution [1]	ranking of relative binding strength to VP1-VP2 (VP1-VP2)	relative binding [2]	ELISA signal [3]
AEGTGDFCWLWPAHSCHDPGPEGGGS (cysteine pairing not given here) [H03-TN09]	able to effectively bind parvovirus B19 capsid proteins and clear them from solution			
AEGTGDFFCSFWHGGCDDDPGPEGGGS (cysteine pairing not given here) [A01-TN8]	able to effectively bind parvovirus B19 capsid proteins and clear them from solution	two highest-ranking isolates		
HFCHFWFGGCPH (peptide, not shown: large carriers, disulfide 3-10 (inferred); also: displayed on M13 phage, coat protein fusion and flanking residues not given here, Tested as phage isolate displaying the peptide (TN8 library)) [TN8 isolate D06]			40	1.3
FFCSFWHGGCDD (peptide, not shown: large carriers, disulfide 3-10 (inferred); also: displayed on M13 phage, coat protein fusion and flanking residues not given here, Tested as phage isolate displaying the peptide (TN8 library); The synthetic peptide form is a separate molecule; also called TN8 isolate A01) [A01-TN8 phage isolate]			52	1.6
FFCALWPSCHH (peptide, not shown: large carriers, disulfide 3-9 (inferred); also: displayed on M13 phage, coat protein fusion and flanking residues not given here, Tested as phage isolate displaying the peptide (TN7 library)) [TN7 isolate B11]			31	0.5
FCWLWPAHSCH (peptide, not shown: large carriers, disulfide 2-10 (inferred); also: displayed on M13 phage, coat protein fusion and flanking residues not given here, Tested as phage isolate displaying the peptide (TN9 library); The synthetic peptide form is a separate molecule; also called TN9 isolate H03) [H03-TN9 phage isolate]			85	0.8
FCHLWWPFQCA (peptide, not shown: large carriers, disulfide 2-10 (inferred); also: displayed on M13 phage, coat protein fusion and flanking residues not given here, Tested as phage isolate displaying the peptide (TN9 library)) [TN9 isolate E03]			40	0.8
FCQLWWPFQCA (peptide, not shown: large carriers, not fully specified (bridges); printed as Phe-Cys-Gln-Leu-Trp-Trp-Pro-Phe-Gln-Cys-Ala; cysteine pairing not given here, Tested as phage isolate (TN9 library)) [TN9 isolate A06]				0.7
FFCQYWYNCD (peptide, not shown: large carriers, disulfide 3-9 (inferred); also: displayed on M13 phage, coat protein fusion and flanking residues not given here, Tested as phage isolate displaying the peptide (TN7 library); Last template position printed as '-' (10 residues)) [TN7 isolate C11]			26	0.7
FCWLWPSSDCF (peptide, not shown: large carriers, disulfide 2-10 (inferred); also: displayed on M13 phage, coat protein fusion and flanking residues not given here, Tested as phage isolate displaying the peptide (TN9 library)) [TN9 isolate D01]			36	0.7
LFCSFWYNCDA (peptide, not shown: large carriers, disulfide 3-9 (inferred); also: displayed on M13 phage, coat protein fusion and flanking residues not given here, Tested as phage isolate displaying the peptide (TN7 library)) [TN7 isolate D11]			35	0.9
LFCSFWYNCDD (peptide, not shown: large carriers, disulfide 3-9 (inferred); also: displayed on M13 phage, coat protein fusion and flanking residues not given here, Tested as phage isolate displaying the peptide (TN7 library)) [TN7 isolate F12]				0.9
FSCLWFPFCPD (peptide, not shown: large carriers, disulfide 3-9 (inferred); also: displayed on M13 phage, coat protein fusion and flanking residues not given here, Tested as phage isolate displaying the peptide (TN7 library)) [TN7 isolate A12]			28	0.5
LFCRFWYNCSA (peptide, not shown: large carriers, disulfide 3-9 (inferred); also: displayed on M13 phage, coat protein fusion and flanking residues not given here, Tested as phage isolate displaying the peptide (TN7 library)) [TN7 isolate H09]				0.6
LFCHFWYNCDF (peptide, not shown: large carriers, disulfide 3-9 (inferred); also: displayed on M13 phage, coat protein fusion and flanking residues not given here, Tested as phage isolate displaying the peptide (TN7 library)) [TN7 isolate B12]			29	0.7
FCRFWYGCHP (peptide, not shown: large carriers, disulfide 2-8 (inferred); also: displayed on M13 phage, coat protein fusion and flanking residues not given here, Tested as phage isolate displaying the peptide (TN7 library); First template position printed as '-' (10 residues)) [TN7 isolate E11]			33	0.6
FFCGFWHDCHP (peptide, not shown: large carriers, disulfide 3-9 (inferred); also: displayed on M13 phage, coat protein fusion and flanking residues not given here, Tested as phage isolate displaying the peptide (TN7 library)) [TN7 isolate A07]			27	0.7
AFCHFWFHGCDD (peptide, not shown: large carriers, disulfide 3-10 (inferred); also: displayed on M13 phage, coat protein fusion and flanking residues not given here, Tested as phage isolate displaying the peptide (TN8 library)) [TN8 isolate A05]			30	1.3
LCPAHWQFWCD (peptide, not shown: large carriers, disulfide 2-10 (inferred); also: displayed on M13 phage, coat protein fusion and flanking residues not given here, Tested as phage isolate displaying the peptide (TN9 library)) [TN9 isolate F01]				0.5
